The record followed here is patent US20090074657A1 (IMMUNE PHARMACEUTICALS, published 2009).

The target in assay [1] is human ferritin (human, UniProt P02794 2-183; P02792 2-175, limits assumed). Briefly: method not stated.
In assay [2] the target is T1, ferritin in fixed and permeabilized CAPAN-1 cells (human, UniProt P02794 1-183; P02792 2-175).
T1 construct: whole, on cells; Endogenous ferritin, over-expressed by CAPAN-1 cells; The cells were fixed and permeabilized, so the ferritin reached is inside the cells; also called cells expressing ferritin
T1 sequence (P02794 whole entry, chain 1 of 2): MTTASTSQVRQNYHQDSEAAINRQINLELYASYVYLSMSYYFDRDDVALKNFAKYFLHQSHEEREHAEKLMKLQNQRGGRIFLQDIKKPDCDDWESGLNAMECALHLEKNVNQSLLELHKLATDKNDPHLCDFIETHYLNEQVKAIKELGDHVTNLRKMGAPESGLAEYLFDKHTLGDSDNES
T1 sequence (P02792 2-175, chain 2 of 2): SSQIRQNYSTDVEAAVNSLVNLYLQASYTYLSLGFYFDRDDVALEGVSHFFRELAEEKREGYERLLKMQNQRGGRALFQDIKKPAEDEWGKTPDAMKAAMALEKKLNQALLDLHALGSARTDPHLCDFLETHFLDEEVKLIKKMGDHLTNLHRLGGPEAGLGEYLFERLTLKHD
Description: Lindmo assay on fixed and permeabilized CAPAN-1 cells, 111In-labelled conjugate. The protocol: Immunoreactivity of the immunoconjugates was assessed on cells expressing ferritin using the method described by Lindmo et al Determination of the immunoreactive fraction of radiolabeled monoclonal antibodies by linear extrapolation to binding at infinite antigen excess. J Immunol Methods 1984; 72 (1):77-89.
The CAPAN-1 cells are a relevant model for human pancreatic cancer (Kyriazis et al Human pancreatic adenocarcinoma line Capan-1 in tissue culture and the nude mouse:morphologic, biologic, and biochemical characteristics. Am J Pathol 1982; 106(2):250-60.). This cell line was established from a liver metastasis of a human pancreatic ductal adenocarcinoma, is tumorigenic and metastatic in nude mice and over-expresses ferritin. […] CAPAN-1 cells were grown in RPMI, 10% foetal calf serum and 2 mM L-glutamine. Cells were harvested at 70-85% confluence using trypsin, washed and resuspended in PBS-0.5% BSA. They were then fixed and permeabilized using the Intrastain kit (rako) following the manufacturer's instructions. Cells were diluted in PBS-0.5% BSA at concentrations ranging from 1.25×10⁵ to 12×10⁶ cells/ml and 500 μl of these suspensions were incubated with a fixed amount of ¹¹¹In-labeled-Ab (250 μl, 50 ng/ml, approximately 100,000CPM) for 2 hours at room temperature under agitation. Suspensions were centrifuged at 5,000×rpm for 5 minutes, the cells were washed with PBS-BSA and the activity in the pellets was counted. Nonspecific binding was determined by co-incubation of the radiolabelled-antibody with a 1.000-fold excess of cold antibody. The total radioactive counts added to each tube were divided by the cell-bound counts after subtraction of the non-specifically bound counts. These values were plotted against the reciprocal of cell dilution. After linear regression analysis, the immunoreactive fraction was obtained from the reciprocal of the intercept on the y-axis.

For assay [3], the target named is T2, human liver ferritin (Calbiochem) (human, UniProt P02794 2-183; P02792 2-175).
T2 construct: Natural ferritin is a multimer of acidic (H) and basic (L) subunits; Adsorbed on plates or tubes in the assays; also called pure ferritin
T2 sequence (P02794 2-183 limits assumed, chain 1 of 2): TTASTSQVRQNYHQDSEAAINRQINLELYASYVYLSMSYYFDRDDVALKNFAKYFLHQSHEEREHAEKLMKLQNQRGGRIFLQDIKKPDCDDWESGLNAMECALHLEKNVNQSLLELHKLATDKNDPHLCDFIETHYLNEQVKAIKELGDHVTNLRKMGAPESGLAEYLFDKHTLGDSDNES
T2 sequence (P02792 2-175 limits assumed, chain 2 of 2): as the sequence (P02792 2-175, chain 2 of 2) above
Description: solid-phase radioimmunoassay, ferritin immobilised at 5 µg/ml on tubes, 90Y-labelled conjugate. As to the method: (§1) A solid-phase radioimmunoassay was performed using ¹¹¹In- and ⁹⁰y-labelled antibodies. Maxisorp tunes (Nunc) were incubated overnight at 4° C. with 1.5 to 10 μg/ml ferritin in PBS. After washing, they were blocked by PBS-0.5% BSA for 2 hours at room temperature. 6.25×10³, 12.5×10³ and 25×10³CPM (200 μl) of the antibodies were added in the coated tubes. The activity in each tube was counted in the gamma counter, then the tubes were washed three times with PBS-0.4% Tween-20 and the remaining activity counted. The difference between activities with and without the radiolabelled-antibody solutions indicated the percentage of bound-antibody. For evaluation of non specific binding to ferritin, a 100-fold excess of unconjugated antibody was added to the most concentrated radiolabelled-antibody solution. Non specific binding of the antibody was assessed on uncoated tubes. […] These binding percentages were calculated taking into account small differences in the labelling efficiencies of the three compounds on the day of the experiment.
(§2) ^aFerritin was immobilised at 5 μg/ml on tubes, then the indium or yttrium conjugated antibodies were incubated at three dilutions ([…]) Results are expressed as the mean of the percentage of bound antibody after washing the tubes. Non specific binding of the antibodies were less than 2%. ^bFive serial dilutions of fixed and permeabilized CAPAN-1 cells were incubated with the three radiolabelled compounds. After washing, the activity bound to the cells was counted in a gamma counter. Results were analysed using the GraphPad software; linear regression analysis of (Total CPM/Bound CPM) = f(cells dilution) were very accurate with r² > 0.99 for all three conjugates.

The target in assay [4] is T2, human liver ferritin (Calbiochem). Briefly: solid-phase radioimmunoassay, ferritin immobilised at 5 µg/ml on tubes, 111In-labelled conjugate. As to the method: as §1, §2

Sequence of human ferritin (P02794 2-183 limits assumed, chain 1 of 2): as the sequence (P02794 2-183 limits assumed, chain 1 of 2) above
Sequence of human ferritin (P02792 2-175 limits assumed, chain 2 of 2): as the sequence (P02792 2-175, chain 2 of 2) above

B1: murine monoclonal anti-ferritin antibody AMB8LK (antibody, V domains shown)
VH: QVQLKESGPGLVAPSQSLSITCTVSGFSLSRYSVHWVRQPPGKGLEWLGTIWGGGSTDYNSVLKSRLSISKDNSKSQVLLKVNSLQTDDTAIYYCASGPYYYTMDYWGQGTSVTVSS
VL: QIVLTQSPAILSASLGEEITLTCSASSSVTFMHWYQQKSGTSPKLLIYTTSNLASGVPSRFSGSGSGTFYSLTISSVEAEDAADYYCHQWSSYPTFGSGTKLEIKR
notes: also called unconjugated AMB8LK; native antibody
A word on the Kd: it is the concentration at which binding is half-saturated. Lower therefore signals higher affinity. B1 returned a Kd in assay [1] of 5.1 nM.

B2: Bz-CHX-A″-DTPA-AMB8LK (antibody, V domains shown)
VH: QVQLKESGPGLVAPSQSLSITCTVSGFSLSRYSVHWVRQPPGKGLEWLGTIWGGGSTDYNSVLKSRLSISKDNSKSQVLLKVNSLQTDDTAIYYCASGPYYYTMDYWGQGTSVTVSS
VL: QIVLTQSPAILSASLGEEITLTCSASSSVTFMHWYQQKSGTSPKLLIYTTSNLASGVPSRFSGSGSGTFYSLTISSVEAEDAADYYCHQWSSYPTFGSGTKLEIKR
modifications: about 3 Bz-CHX-A″-DTPA chelates per antibody (pSCN-Bz-CHX-A″-DTPA conjugation; sites not stated); 111In or 90Y in the radioimmunoassays
notes: also called CHX-DTPA-AMB8LK; CHX-DTPA
For the molecule B2, in assay [2], the “immunoreactivity (immunoreactive fraction)” value amounted to 43%. Also, the “immunoreactivity (percentage of bound antibody)” value in assay [3] worked out at 98.9%; in assay [4] it was 74.8%.

B3: Bz-DTPA-AMB8LK (antibody, V domains shown)
VH: QVQLKESGPGLVAPSQSLSITCTVSGFSLSRYSVHWVRQPPGKGLEWLGTIWGGGSTDYNSVLKSRLSISKDNSKSQVLLKVNSLQTDDTAIYYCASGPYYYTMDYWGQGTSVTVSS
VL: QIVLTQSPAILSASLGEEITLTCSASSSVTFMHWYQQKSGTSPKLLIYTTSNLASGVPSRFSGSGSGTFYSLTISSVEAEDAADYYCHQWSSYPTFGSGTKLEIKR
modifications: about 3 Bz-DTPA chelates per antibody (pSCN-Bz-DTPA conjugation; sites not stated); 111In or 90Y in the radioimmunoassays
notes: also called DTPA conjugate; 111In-DTPA-AMB8LK
Take B3: the “immunoreactivity (immunoreactive fraction)” value in assay [2] worked out at 52%. In addition, the “immunoreactivity (percentage of bound antibody)” value in assay [3] was found to be 100%; in assay [4], 87%.

B4: Bz-DOTA-AMB8LK (antibody, V domains shown)
VH: QVQLKESGPGLVAPSQSLSITCTVSGFSLSRYSVHWVRQPPGKGLEWLGTIWGGGSTDYNSVLKSRLSISKDNSKSQVLLKVNSLQTDDTAIYYCASGPYYYTMDYWGQGTSVTVSS
VL: QIVLTQSPAILSASLGEEITLTCSASSSVTFMHWYQQKSGTSPKLLIYTTSNLASGVPSRFSGSGSGTFYSLTISSVEAEDAADYYCHQWSSYPTFGSGTKLEIKR
modifications: about 3.2 Bz-DOTA chelates per antibody (pSCN-Bz-DOTA conjugation; sites not stated); 111In or 90Y in the radioimmunoassays
notes: also called DOTA-conjugate; 111In-DOTA-AMB8LK
For the molecule B4, the “immunoreactivity (immunoreactive fraction)” value in assay [2] was 24%. Further, the “immunoreactivity (percentage of bound antibody)” value in assay [3] was determined as 73.2%; in assay [4], 76.8%.
